T1: NF90 dsRBDs (mouse, UniProt Q9Z1X4 380-590)
T1 sequence: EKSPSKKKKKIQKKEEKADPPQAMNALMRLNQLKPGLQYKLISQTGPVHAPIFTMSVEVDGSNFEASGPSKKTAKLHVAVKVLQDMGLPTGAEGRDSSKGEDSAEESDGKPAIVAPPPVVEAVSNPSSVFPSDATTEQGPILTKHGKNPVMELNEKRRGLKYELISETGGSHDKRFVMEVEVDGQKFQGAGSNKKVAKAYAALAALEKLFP

B1: ss17-A10/Css17-U10 dsRNA (dsRNA)
RNA 1: CCCCACCACCAUCACUUAAAAAAAAAA
RNA 2: UUUUUUUUUUAAGUGAUGGUGGUGGGG

Columns and labels:
Assay in all cases: EMSA
[1] = target: NF90ΔC591 (DZF + both dsRBDs);NF45 (partner in long complex) (mouse;mouse, UniProt Q9Z1X4;Q9CXY6 1-590;29-390, |)
NF90ΔC591 (DZF + both dsRBDs);NF45 (partner in long complex), sequence (Q9CXY6 29-390, stated change not applied, one chain of several): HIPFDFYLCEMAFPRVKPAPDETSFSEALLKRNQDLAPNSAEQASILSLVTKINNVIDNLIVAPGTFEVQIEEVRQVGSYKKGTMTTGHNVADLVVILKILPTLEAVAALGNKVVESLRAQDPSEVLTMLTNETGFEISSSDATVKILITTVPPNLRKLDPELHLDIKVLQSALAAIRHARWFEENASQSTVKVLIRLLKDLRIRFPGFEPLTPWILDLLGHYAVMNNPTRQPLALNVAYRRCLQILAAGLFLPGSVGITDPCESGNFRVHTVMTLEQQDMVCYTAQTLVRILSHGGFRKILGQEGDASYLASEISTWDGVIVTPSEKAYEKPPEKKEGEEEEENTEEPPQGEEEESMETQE

[2] = target: T1, NF90 dsRBDs
[3] = target: NF90ΔC381 (DZF);NF45ΔN28 (DZF) (mouse;mouse, UniProt Q9Z1X4;Q9CXY6 1-380;29-390, |)

Binder | binding result [1] | binding result [2] | binding result [3]
B1 | binds | binds | no binding
CCCCACCACCAUCACUUAAAAAAAAAA (ssRNA) [ss17-A10] | – | – | no binding

— PMC3467086
